# Values quoted from earlier work, collected in publication PMC9980337.
# “And” between values parts separate entries of the source, which are not always exact repeats. Equal entries are not always repeated.
# Biological target: IL-18 (Homo sapiens) (UniProt Q14116)
# Sequence (Q14116 37-193): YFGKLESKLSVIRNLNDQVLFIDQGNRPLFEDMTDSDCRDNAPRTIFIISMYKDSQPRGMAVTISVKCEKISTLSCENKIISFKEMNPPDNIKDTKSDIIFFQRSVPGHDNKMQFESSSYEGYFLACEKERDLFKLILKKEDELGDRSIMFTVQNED
# Chain of IL-18BP (O95998 31-194): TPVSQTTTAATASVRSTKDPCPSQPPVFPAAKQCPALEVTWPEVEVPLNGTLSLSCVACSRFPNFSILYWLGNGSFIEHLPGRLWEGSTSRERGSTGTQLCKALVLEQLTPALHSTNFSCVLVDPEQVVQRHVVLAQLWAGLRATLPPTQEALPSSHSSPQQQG
substance,measurement,value
IL-18BP (from UniProt O95998),Kd,0.4 nM and 0.05 nM
